Substrate in this data set: O=C1O[C@H]([C@@H](O)CO)C(=O)C1=O
The data set is described as follows: purified protein. The note with it: 2 mM GSH.

Two proteins from paper doi:10.1101/2021.08.28.458008v1 can be followed below.

Where a chain is given by its changes, count along the chain named. Names may count otherwise.

B1: EcGrx2 (Escherichia coli K-12) (protein)
chain: MKLYIYDHCPYCLKARMIFGLKNIPVELHVLLNDDAETPTRMVGQKQVPILQKDDSRYMPESMDIVHYVDKLDGKPLLTGKRSPAIEEWLRKVNGYANKLLLPRFAKSAFDEFSTPAARKYFVDKKEASAGNFADLLAHSDGLIKNISDDLRALDKLIVKPNAVNGELSEDDIQLFPLLRNLTLVAGINWPSRVADYRDNMAKQTQINLLSSMAI
As to B1, under “50 mM sodium phosphate pH 7.4”, the Km was 2879 ± 640.4 µM and the kcat came out at 3.8245 s⁻¹.

B2: EcGrx2 (Escherichia coli K-12; C12S/C9S) (protein)
chain: B1 chain with C9S, C12S
B2: the Km (50 mM sodium phosphate pH 7.4, His6-tagged mutant) was 968 (±462.3) µM.
